Where “and” joins values, the source holds several entries; their conditions need not be identical. Equal values may be shown once. Blank lines part the entries; values can stand above or below the binder they belong to.
Legend:
human OX40 on cells [1] = biological target: T1, human OX40 on cells (human, UniProt P43489 29-277); assay: cell-based or functional assay
T1 sequence (looked up): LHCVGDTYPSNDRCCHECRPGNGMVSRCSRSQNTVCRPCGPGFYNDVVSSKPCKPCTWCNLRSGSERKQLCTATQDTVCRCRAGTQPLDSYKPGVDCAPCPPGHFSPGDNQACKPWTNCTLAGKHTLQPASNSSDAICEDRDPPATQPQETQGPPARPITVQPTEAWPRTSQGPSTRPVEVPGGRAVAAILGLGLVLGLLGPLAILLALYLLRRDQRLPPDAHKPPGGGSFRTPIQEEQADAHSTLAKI

human OX40 on cells [2] = biological target: T1, human OX40 on cells; assay: FACS on CHO-hOX40 cells
Procedure: The OX40 antibody gradient was created with PBS, and a stock solution of 10× final concentration was prepared. CHO-hOX40 cells were collected, washed once with PBS, counted, and diluted to a cell suspension of 2×10⁶ cells/ml. 10 μl of OX40 antibody stock solutions were added into 100 μl of cell suspension, and incubated at 4° C. in the dark for 30 min. After washing twice with PBS, a secondary antibody was added and an incubation was carried out at 4° C. for 30 min in the dark. After washing once with PBS, the cells were suspended in 400 μl FACS buffer and measured on the instrument.

mouse OX40 on CHO cells = biological target: T2, mouse OX40 on CHO cells (mouse, UniProt P47741 20-272); assay: FACS on CHO cells expressing mouse OX40
T2 construct: whole, on cells; also called CHO-mOX40
T2 sequence (looked up): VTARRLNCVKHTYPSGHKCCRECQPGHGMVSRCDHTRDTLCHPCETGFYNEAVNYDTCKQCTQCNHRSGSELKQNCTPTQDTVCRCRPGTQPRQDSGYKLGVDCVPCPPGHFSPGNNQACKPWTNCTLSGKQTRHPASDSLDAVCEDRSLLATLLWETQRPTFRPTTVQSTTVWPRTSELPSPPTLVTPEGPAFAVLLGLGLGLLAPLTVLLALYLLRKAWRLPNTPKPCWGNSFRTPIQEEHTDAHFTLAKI

human OX40 protein [3] = biological target: T3, human OX40 protein (human, UniProt P43489 29-214, limits assumed); assay: ELISA, protein coated at 1 µg/mL, goat anti-human IgG HRP
T3 construct: also called human OX antigen protein
T3 sequence (looked up): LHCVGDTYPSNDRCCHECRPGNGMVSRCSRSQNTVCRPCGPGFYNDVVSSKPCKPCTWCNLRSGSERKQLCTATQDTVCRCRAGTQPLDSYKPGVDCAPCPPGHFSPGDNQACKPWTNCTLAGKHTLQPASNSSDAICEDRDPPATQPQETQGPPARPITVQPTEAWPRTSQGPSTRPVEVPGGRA
Procedure: (§1) The next day, it was washed three times with 300 μL PBST (Tween 20: 0.5‰), then blocked with 5% BSA/PBS at 100 μL/well for 2 hours, and shaken at room temperature. After washing 3 times with 300 μL PBST, the gradient dilutions of samples were prepared with PBS, which were added into the 96-well plate at 100 μL/well and shaken at room temperature for 1 hour, and washed 3 times with 300 μL PBST. The secondary antibody goat anti-human IgG HRP solution was prepared, which was added into the 96-well plate at 100 μL/well, and shaken at room temperature for 1 hour. After washing 4 times with 300 μL PBST, TMB was added at 100 μL/well and developed for 20 min. 0.6N H₂SO4 was added at 100 μL/well to stop the development, and OD450 nm was measured.

human OX40 protein [4] = biological target: T3, human OX40 protein; assay: ELISA as in Example 3, human OX40 protein coated
Procedure: as §1
The in vitro binding assay of humanized antibodies and human OX antigen protein was carried out as described in Example 3.

B1: MT01-L1(M1) (antibody, human IgG1, kappa, V domains shown)
VH: EVQLQQSGPELVKPGASVKMSCKASGYTFTSYVMHWLKQKPGQGLEWIGYINPYNDATKYNEKFKGKAKLTSDKSSSTAYMELSSLTSEDSAVYYCANYYGSKFAMDYWGQGTSVTVSS
VL: DIQMTQTTSSLSASLGDRVTISCRASQDISNYLSWYQRKPDGAVKLLIYYTSRLHSGVPSRFSGSGSGADYSLTISNLEQEDIATYFCQQGITLPWTFGGGTKLEIKR
EC50 for activation of the NFκB-luciferase reporter gene (human OX40 on cells [1]): 0.0645 µg/mL

B3: MT01-L1(M1/M2) (antibody, human IgG1, kappa, V domains shown)
VH: EVQLQQSGPELVKPGASVKMSCKASGYTFTSYVMHWLKQKPGQGLEWIGYINPYNDATKYNEKFKGKAKLTSDKSSSTAYMELSSLTSEDSAVYYCANYYGSKFAMDYWGQGTSVTVSS
VL: DIQMTQTTSSLSASLGDRVTISCRASQDISNYLSWYQRKPDGAVKLLIYYTSRLHSGVPSRFSGSGSGADYSLTISNLEQEDIATYFCQQGITLPFTFGGGTKLEIKR
EC50 for activation of the NFκB-luciferase reporter gene (human OX40 on cells [1]): 0.128 µg/mL

B6: MT01-C1 (antibody, human IgG1, kappa)
heavy: not shown
light: DIQMTQSPSSVSASVGDRVTITCRASQDISNYLSWYQQKPGGAVKLLIYYTSRLHSGVPSRFSGSGSGTDYTLTISSLQPEDFATYFCQQGITLPWTFGQGTKVEIKRTVAAPSVFIFPPSDEQLKSGTASVVCLLNNFYPREAKVQWKVDNALQSGNSQESVTEQDSKDSTYSLSSTLTLSKADYEKHKVYACEVTHQGLSSPVTKSFNRGEC
notes: also called humanized monoclonal antibody MT01-C1
EC50 of activation on a cell line transfected stably by Jurkat-OX40-NFκB-luciferase reporter (human OX40 on cells [1]): 0.028 µg/mL | EC50 (human OX40 protein [4]): 0.345 µg/mL

B7: MT01-C1(G2) (antibody, human IgG2, kappa)
heavy: EVQLVQSGAEVKKPGESLKISCKASGYTFTSYVMHWLRQMPGKGLEWMGYINPYNDGTKYNEKFKGQVTISSDKSISTAYLQWSSLKASDTAMYYCANYYGSKFAMDYWGQGTMVTVSSASTKGPSVFPLAPCSRSTSESTAALGCLVKDYFPEPVTVSWNSGALTSGVHTFPAVLQSSGLYSLSSVVTVPSSNFGTQTYTCNVDHKPSNTKVDKTVERKCCVECPPCPAPPVAGPSVFLFPPKPKDTLMISRTPEVTCVVVDVSHEDPEVQFNWYVDGVEVHNAKTKPREEQFNSTFRVVSVLTVVHQDWLNGKEYKCKVSNKGLPAPIEKTISKTKGQPREPQVYTLPPSREEMTKNQVSLTCLVKGFYPSDIAVEWESNGQPENNYKTTPPMLDSDGSFFLYSKLTVDKSRWQQGNVFSCSVMHEALHNHYTQKSLSLSPGK
light: DIQMTQSPSSVSASVGDRVTITCRASQDISNYLSWYQQKPGGAVKLLIYYTSRLHSGVPSRFSGSGSGTDYTLTISSLQPEDFATYFCQQGITLPWTFGQGTKVEIKRTVAAPSVFIFPPSDEQLKSGTASVVCLLNNFYPREAKVQWKVDNALQSGNSQESVTEQDSKDSTYSLSSTLTLSKADYEKHKVYACEVTHQGLSSPVTKSFNRGEC
EC50 of activation on a cell line transfected stably by Jurkat-OX40-NFκB-luciferase reporter (human OX40 on cells [1]): 0.0434 µg/mL | EC50 (human OX40 protein [4]): 0.39 µg/mL

B8: MT01-L1 (antibody, human IgG1, kappa)
heavy: not shown
light: DIQMTQTTSSLSASLGDRVTISCRASQDISNYLSWYQRKPDGAVKLLIYYTSRLHSGVPSRFSGSGSGADYSLTISNLEQEDIATYFCQQGITLPWTFGGGTKLEIKRTVAAPSVFIFPPSDEQLKSGTASVVCLLNNFYPREAKVQWKVDNALQSGNSQESVTEQDSKDSTYSLSSTLTLSKADYEKHKVYACEVTHQGLSSPVTKSFNRGEC
notes: also called human-mouse chimeric monoclonal antibody MT01-L1
EC50 for activation of the NFκB-luciferase reporter gene (human OX40 on cells [1]): 0.0391 µg/mL and 0.0574 µg/mL | IC50 of inhibition of the OX40L-induced activation of NFkB signaling pathway in Jurkat cells (human OX40 on cells [1]): 0.686 µg/mL | EC50 (human OX40 on cells [2]): 1.22 µg/mL | binding result (mouse OX40 on CHO cells): no binding | EC50 (human OX40 protein [3]): 0.291 µg/mL

B9: MT01-L1(G2) (antibody, human IgG2, kappa)
heavy: EVQLQQSGPELVKPGASVKMSCKASGYTFTSYVMHWLKQKPGQGLEWIGYINPYNDGTKYNEKFKGKAKLTSDKSSSTAYMELSSLTSEDSAVYYCANYYGSKFAMDYWGQGTSVTVSSASTKGPSVFPLAPCSRSTSESTAALGCLVKDYFPEPVTVSWNSGALTSGVHTFPAVLQSSGLYSLSSVVTVPSSNFGTQTYTCNVDHKPSNTKVDKTVERKCCVECPPCPAPPVAGPSVFLFPPKPKDTLMISRTPEVTCVVVDVSHEDPEVQFNWYVDGVEVHNAKTKPREEQFNSTFRVVSVLTVVHQDWLNGKEYKCKVSNKGLPAPIEKTISKTKGQPREPQVYTLPPSREEMTKNQVSLTCLVKGFYPSDIAVEWESNGQPENNYKTTPPMLDSDGSFFLYSKLTVDKSRWQQGNVFSCSVMHEALHNHYTQKSLSLSPGK
light: DIQMTQTTSSLSASLGDRVTISCRASQDISNYLSWYQRKPDGAVKLLIYYTSRLHSGVPSRFSGSGSGADYSLTISNLEQEDIATYFCQQGITLPWTFGGGTKLEIKRTVAAPSVFIFPPSDEQLKSGTASVVCLLNNFYPREAKVQWKVDNALQSGNSQESVTEQDSKDSTYSLSSTLTLSKADYEKHKVYACEVTHQGLSSPVTKSFNRGEC
EC50 for activation of the NFκB-luciferase reporter gene (human OX40 on cells [1]): 0.0149 µg/mL

Further lines, results first:

EC50 for activation of the NFκB-luciferase reporter gene (human OX40 on cells [1]): 0.06 µg/mL
B2: MT01-L1(M2) (antibody, human IgG1, kappa, V domains shown)
VH: EVQLQQSGPELVKPGASVKMSCKASGYTFTSYVMHWLKQKPGQGLEWIGYINPYNDGTKYNEKFKGKAKLTSDKSSSTAYMELSSLTSEDSAVYYCANYYGSKFAMDYWGQGTSVTVSS
VL: DIQMTQTTSSLSASLGDRVTISCRASQDISNYLSWYQRKPDGAVKLLIYYTSRLHSGVPSRFSGSGSGADYSLTISNLEQEDIATYFCQQGITLPFTFGGGTKLEIKR

EC50 for activation of the NFκB-luciferase reporter gene (human OX40 on cells [1]): 0.0841 µg/mL | IC50 of inhibition of the OX40L-induced activation of NFkB signaling pathway in Jurkat cells (human OX40 on cells [1]): 1.59 µg/mL | EC50 (human OX40 on cells [2]): 2.42 µg/mL | binding result (mouse OX40 on CHO cells): no binding | EC50 (human OX40 protein [3]): 0.208 µg/mL
B4: MT01-L2 (antibody, human IgG1, lambda)
heavy: not shown
light: QLVLTQSSSASFSLGASAKLTCTLSSQHSTYIIEWYQQQPLKPPKYVMELKKDGSHSTGEGIPDRFSGSSSGADRYLSISNIQPEDEAIYICGVGNTIKEQFVYVFGGGTKVTVLGQPKANPTVTLFPPSSEELQANKATLVCLISDFYPGAVTVAWKADGSPVKAGVETTKPSKQSNNKYAASSYLSLTPEQWKSHRSYSCQVTHEGSTVEKTVAPTECS
notes: also called human-mouse chimeric monoclonal antibody MT01-L2

EC50 for activation of the NFκB-luciferase reporter gene (human OX40 on cells [1]): 0.118 µg/mL
B5: MT01-L2(G2) (antibody, human IgG2, lambda)
heavy: EVQLVESGGGLVQPKGSLSLSCAASGFTFNTYAMNWVRQAPGKGLEWVARIRSKSNNYATYYADSVKDRFTISRDDSQSMLYLQMTNLKTEDTAMYHCVRSLGRAFVYWGQGTLVTVSSASTKGPSVFPLAPCSRSTSESTAALGCLVKDYFPEPVTVSWNSGALTSGVHTFPAVLQSSGLYSLSSVVTVPSSNFGTQTYTCNVDHKPSNTKVDKTVERKCCVECPPCPAPPVAGPSVFLFPPKPKDTLMISRTPEVTCVVVDVSHEDPEVQFNWYVDGVEVHNAKTKPREEQFNSTFRVVSVLTVVHQDWLNGKEYKCKVSNKGLPAPIEKTISKTKGQPREPQVYTLPPSREEMTKNQVSLTCLVKGFYPSDIAVEWESNGQPENNYKTTPPMLDSDGSFFLYSKLTVDKSRWQQGNVFSCSVMHEALHNHYTQKSLSLSPGK
light: QLVLTQSSSASFSLGASAKLTCTLSSQHSTYIIEWYQQQPLKPPKYVMELKKDGSHSTGEGIPDRFSGSSSGADRYLSISNIQPEDEAIYICGVGNTIKEQFVYVFGGGTKVTVLGQPKANPTVTLFPPSSEELQANKATLVCLISDFYPGAVTVAWKADGSPVKAGVETTKPSKQSNNKYAASSYLSLTPEQWKSHRSYSCQVTHEGSTVEKTVAPTECS
